In assay [1] the target is MosV-RBPβ (C-terminal six-bladed β-propeller head domain of the Mossman virus receptor-binding protein, Glu202−Thr632) (Mossman virus). Briefly: SEC; Superdex 200 10/30 column, 10 mM Tris pH 8.0, 150 mM NaCl; compared with gel filtration standards; pre- and post-deglycosylation.
Assay [2] has the same target. Briefly: SEC-SAXS; glycosylated protein, 45 µL at 5 mg/mL on Superdex 200 PC 3.2/30 in TBS, in-line SAXS; curves fitted with monomeric and dimeric crystal models. For orientation: Size exclusion chromatography separates by hydrodynamic size, large species first.
Assay [3] addresses NarV-RBPβ (C-terminal six-bladed β-propeller head domain of the Nariva virus receptor-binding protein, Glu184−Pro657) (Nariva virus). Briefly: SEC; Superdex 200 10/30 column, 10 mM Tris pH 8.0, 150 mM NaCl; compared with gel filtration standards; pre- and post-deglycosylation.
The target is the same in assay [4]. Briefly: SEC-SAXS; glycosylated protein, 45 µL at 5 mg/mL on Superdex 200 PC 3.2/30 in TBS, in-line SAXS; curves fitted with monomeric and dimeric crystal models.

In the case of “MosV-RBPβ (C-terminal six-bladed β-propeller head domain of the Mossman virus receptor-binding protein, Glu202−Thr632) (domain or fragment)”, the stoichiometry N in assay [1] and in assay [2] was 2 in each case.
Turning to “NarV-RBPβ (C-terminal six-bladed β-propeller head domain of the Nariva virus receptor-binding protein, Glu184−Pro657) (domain or fragment)”, the stoichiometry N in assay [3] and in assay [4] was 2 throughout.

One may read the stoichiometry N as the number of molecules, sites or subunits per partner or assembly.

Values taken from PMC10653815.
